Experimental findings from the supplement of paper PMC10567573 are described below.

B1: ZBED1 (parent)
chain: EQVFSLGDGVSGGFFGIRDSSFL
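Note: lentivirally expressed fusions sorted by FACS into six bins by GFP to DsRed ratio, PSI derived from sequencing read proportions per bin multiplied by bin number.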

Variants of B1 are the subject of the data set. Put plainly: protein stability index of a GFP-peptide fusion (GPS, HEK-293T) (PSI 1-6); higher = more stable. The note with it: c terminus: native.
Turning to EQVFSLGDGVSGGYFGIRDSSFL, the protein stability index is 3.18.
With EQVFSLGDGVSGGVFGIRDSSFL, the protein stability index was found to be 3.
To EQVFSLGDGVSGGWFGIRDSSFL belongs 3.44; to EQVFSLGDGVSGGFFGSRDSSFL, 4.2.
To EQVFSLGDGVSGGFFGYRDSSFL belongs 3.28.
In the case of EQVFSLGDGVSGGFFGERDSSFL, the protein stability index amounted to 4.71.
To EQVFSLGDGVSGGFFGKRDSSFL belongs 3.8; to EQVFSLGDGVSGGFFGDRDSSFL, 4.55; to EQVFSLGDGVSGGFFGVRDSSFL, 3.87.
Regarding EQVFSLGDGVSGGFFGQRDSSFL, the protein stability index was 4.31.
Turning to EQVFSLGDGVSGGFFGGRDSSFL, the protein stability index was found to be 4.17.
Regarding EQVFSLGDGVSGGFFGARDSSFL, the protein stability index was 4.37.
On to EQVFSLGDGVSGGFFGLRDSSFL, for which the protein stability index was 3.68.
Take EQVFSLGDGVSGGFFGFRDSSFL: the protein stability index worked out at 3.42.
As for EQVFSLGDGVSGGFFGCRDSSFL, the figure is 3.76; as for EQVFSLGDGVSGGFFGWRDSSFL, 3.52.
On to EQVFSLGDGVSGGFFGRRDSSFL, for which the protein stability index was found to be 4.2.
For EQVFSLGDGVSGGFFGTRDSSFL, the protein stability index was found to be 4.3.
Take EQVFSLGDGVSGGFFGPRDSSFL: the protein stability index was 4.
Take EQVFSLGDGVSGGFFGMRDSSFL: the protein stability index worked out at 3.75.
As for EQVFSLGDGVSGGFFGNRDSSFL, the figure is 4.02; as for EQVFSLGDGVSGGFFGHRDSSFL, 4.03; as for EQVFSLGDGVSGGFFGIRESSFL, 2.92.
For EQVFSLGDGVSGGFFGIRASSFL, the protein stability index is 1.3.
Consider EQVFSLGDGVSGGFFGIRMSSFL, for which the protein stability index came to 1.77.
For EQVFSLGDGVSGGFFGIRYSSFL, the protein stability index came to 2.57.
As for EQVFSLGDGVSGGFFGIRQSSFL, the figure is 2.15.
As for EQVFSLGDGVSGGFFGIRTSSFL, the figure is 1.85; as for EQVFSLGDGVSGGFFGIRCSSFL, 2.26; as for EQVFSLGDGVSGGFFGIRVSSFL, 2.65.
EQVFSLGDGVSGGFFGIRSSSFL: the protein stability index amounted to 1.68.
As for EQVFSLGDGVSGGFFGIRNSSFL, the figure is 2.75; as for EQVFSLGDGVSGGFFGIRRSSFL, 2.78; as for EQVFSLGDGVSGGFFGIRFSSFL, 3.4.
Turning to EQVFSLGDGVSGGFFGIRPSSFL, the protein stability index was 2.15.
As for EQVFSLGDGVSGGFFGIRLSSFL, the figure is 2.1.
With EQVFSLGDGVSGGFFGIRHSSFL, the protein stability index was 2.19.
Regarding EQVFSLGDGVSGGFFGIRGSSFL, the protein stability index turned out to be 2.87.
As to EQVFSLGDGVSGGFFGIRISSFL, the protein stability index was found to be 1.82.
To EQVFSLGDGVSGGFFGIRKSSFL belongs 3.4; to EQVFSLGDGVSGGFEGIRDSSFL, 3.78; to EQVFSLGDGVSGGFWGIRDSSFL, 2.88.
On to EQVFSLGDGVSGGFPGIRDSSFL, for which the protein stability index is 4.25.
As for EQVFSLGDGVSGGFVGIRDSSFL, the protein stability index is 3.65.
For EQVFSLGDGVSGGFQGIRDSSFL, the protein stability index came out at 4.63.
With EQVFSLGDGVSGGFGGIRDSSFL, the protein stability index was 3.85.
To EQVFSLGDGVSGGFMGIRDSSFL belongs 3.82; to EQVFSLGDGVSGGFSGIRDSSFL, 4.43.
Turning to EQVFSLGDGVSGGFIGIRDSSFL, the protein stability index stood at 3.67.
EQVFSLGDGVSGGFKGIRDSSFL: the protein stability index turned out to be 4.1.
Turning to EQVFSLGDGVSGGFLGIRDSSFL, the protein stability index was 3.7.
As for EQVFSLGDGVSGGFRGIRDSSFL, the figure is 4.13; as for EQVFSLGDGVSGGFTGIRDSSFL, 4.08.
To EQVFSLGDGVSGGFDGIRDSSFL belongs 4.15; to EQVFSLGDGVSGGFYGIRDSSFL, 3.52; to EQVFSLGDGVSGGFNGIRDSSFL, 4.21.
Turning to EQVFSLGDGVSGGFAGIRDSSFL, the protein stability index worked out at 4.32.
In the case of EQVFSLGDGVSGGFHGIRDSSFL, the protein stability index was determined as 4.11.
As for EQVFSLGDGVSGGFCGIRDSSFL, the protein stability index turned out to be 3.64.
On to EQVFSLGDGVSGGFFHIRDSSFL, for which the protein stability index turned out to be 3.56.
For EQVFSLGDGVSGGFFVIRDSSFL, the protein stability index came to 1.85.
For the variant EQVFSLGDGVSGGFFDIRDSSFL, the protein stability index worked out at 3.77.
Regarding EQVFSLGDGVSGGFFMIRDSSFL, the protein stability index came to 2.17.
As for EQVFSLGDGVSGGFFQIRDSSFL, the protein stability index is 2.93.
As for EQVFSLGDGVSGGFFAIRDSSFL, the figure is 2.62.
As for EQVFSLGDGVSGGFFEIRDSSFL, the figure is 2.83.
As for EQVFSLGDGVSGGFFTIRDSSFL, the protein stability index was 2.77.
Consider EQVFSLGDGVSGGFFLIRDSSFL, for which the protein stability index is 2.8.
To EQVFSLGDGVSGGFFYIRDSSFL belongs 2.29.
As for EQVFSLGDGVSGGFFCIRDSSFL, the figure is 1.84; as for EQVFSLGDGVSGGFFNIRDSSFL, 3.46; as for EQVFSLGDGVSGGFFKIRDSSFL, 3.29.
In the case of EQVFSLGDGVSGGFFIIRDSSFL, the protein stability index was determined as 1.57.
To EQVFSLGDGVSGGFFSIRDSSFL belongs 2.05; to EQVFSLGDGVSGGFFPIRDSSFL, 2.85; to EQVFSLGDGVSGGFFFIRDSSFL, 1.91.
In the case of EQVFSLGDGVSGGFFWIRDSSFL, the protein stability index was determined as 1.76.
To EQVFSLGDGVSGGFFRIRDSSFL belongs 3.14; to EQVFSLGDGVSGGFFGICDSSFL, 1.98.
Consider EQVFSLGDGVSGGFFGIPDSSFL, for which the protein stability index worked out at 3.28.
In the case of EQVFSLGDGVSGGFFGIDDSSFL, the protein stability index is 3.98.
To EQVFSLGDGVSGGFFGITDSSFL belongs 3.32; to EQVFSLGDGVSGGFFGINDSSFL, 3.9.
In the case of EQVFSLGDGVSGGFFGIGDSSFL, the protein stability index was 3.42.
Turning to EQVFSLGDGVSGGFFGIADSSFL, the protein stability index worked out at 2.92.
For EQVFSLGDGVSGGFFGIIDSSFL, the protein stability index came to 2.26.
To EQVFSLGDGVSGGFFGIHDSSFL belongs 2.62; to EQVFSLGDGVSGGFFGIFDSSFL, 2.07.
In the case of EQVFSLGDGVSGGFFGIQDSSFL, the protein stability index was 3.38.
As for EQVFSLGDGVSGGFFGIWDSSFL, the figure is 2.21; as for EQVFSLGDGVSGGFFGISDSSFL, 3.65; as for EQVFSLGDGVSGGFFGIKDSSFL, 3.96.
With EQVFSLGDGVSGGFFGIEDSSFL, the protein stability index amounted to 3.93.
As to EQVFSLGDGVSGGFFGILDSSFL, the protein stability index was found to be 2.78.
For EQVFSLGDGVSGGFFGIMDSSFL, the protein stability index is 2.71.
Consider EQVFSLGDGVSGGFFGIYDSSFL, for which the protein stability index was 2.49.
In the case of EQVFSLGDGVSGGFFGIVDSSFL, the protein stability index came out at 2.14.
